Here are results for eight molecules from patent US20260193335A1 (ZOETIS SERVICES, published 2026).

One may read the Kd as the free concentration of one partner at which half of the binding sites on the other are occupied at equilibrium, for simple one-to-one binding. A high value points to a looser complex.

Assay [1] deals with Feline FcRn (complex of FcRn-α subunit and β-microglobulin, C-terminal His tag) (feline). The assay is described as follows: SPR Biacore, FcRn amine-coupled on CM5, pH 6. (In general: In SPR one partner is held on a chip, and binding of the other changes the refractive index at the surface.)
For assay [2], the target named is IL31 (target of felinized anti-IL31 antibody mAb1). The experiment in a line: SPR Biacore T200, target amine-coupled, 15 C.
Assay [3] deals with Feline FcRn (complex of FcRn-α subunit and β-microglobulin, C-terminal His tag) (feline). The experiment in a line: SPR Biacore, FcRn amine-coupled on CM5, pH 7.2.
Assay [4] deals with T1, Feline FcRn (complex of FcRn-α subunit and β-microglobulin, C-terminal His tag) (feline, UniProt A0ABI7ZNY9 23-296; Q5MGS7 21-118).
T1 construct: treated here as one molecule
The assay is described as follows: SPR Biacore, biotin-FcRn on SA chip, pH 6; pH 6. On the procedure: (§1) Feline FcRn was isolated, prepared and mutant Fc IgGs were assayed against feline FcRn according to Strietzel et. al., discussed above. Standard PCR was used to amplify feline FcRn-α subunit and β-microglobulin. FcRn-α subunit and β-microglobulin were co-transfected into HEK 293 cells and the FcRn complex was purified by IMAC affinity purification via the c-terminal His tag. FcRn complex was biotin labeled through BirA enzymatic biotinylatoin reaction. KD's were measured by Biacore T200 (GE Healthcare, Pittsburgh, PA, USA) or Biacore 8K (Cytiva, Marlborough, MA, USA) using a SA sensor chip.
(§2) FcRn was captured on the surface of the sensor using a modified SA capture method. 10 mM MES; 150 mM NaCl; 0.005% Tween20; 0.5 mg/mL BSA; pH6 was used as capture, method running buffer and titrations. 1×HBS-P, 0.5 mg/mL BSA; pH7.4 was also used for method running buffer and titrations. Fc mutant IgGs were flowed over receptor surfaces and affinity was determined using T200 evaluation software or Biacore Insight Evaluation software. Blank runs containing buffer only were subtracted out from all runs. Flow cells were regenerated using 50 mM Tris pH8 or pH9. Runs were performed at 15° C.

For assay [5], the target named is T1, Feline FcRn (complex of FcRn-α subunit …). The assay is described as follows: SPR Biacore, biotin-FcRn on SA chip, pH 6. Put shortly: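 Runs at 15° C used either pH 6 buffer (10 mM MES, 150 mM NaCl, 0.005% Tween20, 0.5 mg/mL BSA) or pH 7.4 buffer (1×HBS-P, 0.5 mg/mL BSA), with Fc mutant IgGs as analytes. Receptor was biotinylated feline FcRn complex (co-expressed in HEK 293) on an SA chip. Affinities from blank-subtracted SPR data.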

Assay [6] has the same target. The assay is described as follows: SPR Biacore, biotin-FcRn on SA chip, pH 7.4. On the procedure: as §1, §2

Feline FcRn (complex of FcRn-α subunit and β-microglobulin, C-terminal His tag) (feline), sequence (chain, as listed by the source, chain 1 of 2): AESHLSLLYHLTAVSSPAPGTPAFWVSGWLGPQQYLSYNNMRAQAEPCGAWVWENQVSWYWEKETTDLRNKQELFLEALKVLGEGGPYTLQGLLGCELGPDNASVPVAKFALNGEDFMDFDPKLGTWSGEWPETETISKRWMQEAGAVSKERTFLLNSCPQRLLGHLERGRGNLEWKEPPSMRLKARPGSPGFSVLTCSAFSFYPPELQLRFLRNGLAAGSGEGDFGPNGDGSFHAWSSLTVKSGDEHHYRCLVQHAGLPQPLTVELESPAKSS
Feline FcRn (complex of FcRn-α subunit and β-microglobulin, C-terminal His tag) (feline), sequence (Q5MGS7 21-118, chain 2 of 2): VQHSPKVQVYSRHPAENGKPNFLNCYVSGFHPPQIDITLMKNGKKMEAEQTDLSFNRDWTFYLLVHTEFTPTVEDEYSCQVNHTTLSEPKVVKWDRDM

B1: mAb1 (felinized anti-IL31 antibody) wild-type, feline IgG1a (antibody, part only; not given: Anti-IL31 heavy and light variable domains, part only)
heavy, part: ASTTAPSVFPLAPSCGTTSGATVALACLVLGYFPEPVTVSWNSGALTSGVHTFPAVLQASGLYSLSSMVTVPSSRWLSDTFTCNVAHPPSNTKVDKTVRKTDHPPGPKPCDCPKCPPPEMLGGPSIFIFPPKPKDTLSISRTPEVTCLVVDLGPDDSDVQITWFVDNTQVYTAKTSPREEQFNSTYRVVSVLPILHQDWLKGKEFKCKVNSKSLPSPIERTISKAKGQPHEPQVYVLPPAQEELSRNKVSVTCLIKSFHPPDIAVEWEITGQPEPENNYRTTPPQLDSDGTYFVYSKLSVDRSHWQRGNTYTCSVSHEALHSHHTQKSLTQSPGK
Take B1: the Kd worked out at 12.1 nM in assay [1] and 0.0223 nM in assay [2].

B2: mAb1 (felinized anti-IL31 antibody) S428L, feline IgG1a (antibody, part only; not given: Anti-IL31 heavy and light variable domains, part only)
heavy, part: ASTTAPSVFPLAPSCGTTSGATVALACLVLGYFPEPVTVSWNSGALTSGVHTFPAVLQASGLYSLSSMVTVPSSRWLSDTFTCNVAHPPSNTKVDKTVRKTDHPPGPKPCDCPKCPPPEMLGGPSIFIFPPKPKDTLSISRTPEVTCLVVDLGPDDSDVQITWFVDNTQVYTAKTSPREEQFNSTYRVVSVLPILHQDWLKGKEFKCKVNSKSLPSPIERTISKAKGQPHEPQVYVLPPAQEELSRNKVSVTCLIKSFHPPDIAVEWEITGQPEPENNYRTTPPQLDSDGTYFVYSKLSVDRSHWQRGNTYTCSVLHEALHSHHTQKSLTQSPGK
For the molecule B2, the values for the Kd in assay [1], in assay [2] and in assay [3] were 3.77 nM, 0.0228 nM and 180 nM, respectively.

B3: mAb4 (felinized anti-IL31 antibody ZTS-5864) WT, feline IgG1a (antibody)
heavy: DVQLVESGGDLVKPGGSLRLTCVASGFTFSDYAMSWVRQAPGKGLQWVAGIDSVGSGTSYADSVKGRFTISRDNAKNTLYLQMNSLKTEDTATYYCASGFPGSFEHWGQGTLVTVSSASTTAPSVFPLAPSCGTTSGATVALACLVLGYFPEPVTVSWNSGALTSGVHTFPAVLQASGLYSLSSMVTVPSSRWLSDTFTCNVAHPPSNTKVDKTVRKTDHPPGPKPCDCPKCPPPEMLGGPSIFIFPPKPKDTLSISRTPEVTCLVVDLGPDDSDVQITWFVDNTQVYTAKTSPREEQFNSTYRVVSVLPILHQDWLKGKEFKCKVNSKSLPSPIERTISKAKGQPHEPQVYVLPPAQEELSRNKVSVTCLIKSFHPPDIAVEWEITGQPEPENNYRTTPPQLDSDGTYFVYSKLSVDRSHWQRGNTYTCSVSHEALHSHHTQKSLTQSPGK
VL: QSVLTQPSSVSGTLGQRITISCTGSSSNIGSGYVGWYQQVPGMGPKTVIYYNSDRPSGVPDRFSGSKSGSSGTLTITGLQAEDEADYYCSVYDRTFNAVFGGGT
notes: The same holds for all mAb4 variants; also called mAb4 ID No. 1
Turning to B3, the Kd in assay [4] was 32 nM.

B4: mAb4 (felinized anti-IL31 antibody ZTS-5864) S428M and S434W, feline IgG1a (antibody)
heavy: DVQLVESGGDLVKPGGSLRLTCVASGFTFSDYAMSWVRQAPGKGLQWVAGIDSVGSGTSYADSVKGRFTISRDNAKNTLYLQMNSLKTEDTATYYCASGFPGSFEHWGQGTLVTVSSASTTAPSVFPLAPSCGTTSGATVALACLVLGYFPEPVTVSWNSGALTSGVHTFPAVLQASGLYSLSSMVTVPSSRWLSDTFTCNVAHPPSNTKVDKTVRKTDHPPGPKPCDCPKCPPPEMLGGPSIFIFPPKPKDTLSISRTPEVTCLVVDLGPDDSDVQITWFVDNTQVYTAKTSPREEQFNSTYRVVSVLPILHQDWLKGKEFKCKVNSKSLPSPIERTISKAKGQPHEPQVYVLPPAQEELSRNKVSVTCLIKSFHPPDIAVEWEITGQPEPENNYRTTPPQLDSDGTYFVYSKLSVDRSHWQRGNTYTCSVMHEALHWHHTQKSLTQSPGK
VL: QSVLTQPSSVSGTLGQRITISCTGSSSNIGSGYVGWYQQVPGMGPKTVIYYNSDRPSGVPDRFSGSKSGSSGTLTITGLQAEDEADYYCSVYDRTFNAVFGGGT
notes: also called mAb4 ID No. 36
Regarding B4, the results for the Kd in assay [5] and in assay [6] were 6.83 nM and 5010 nM, respectively.

B5: mAb4 (felinized anti-IL31 antibody ZTS-5864) S434H, feline IgG1a (antibody)
heavy: DVQLVESGGDLVKPGGSLRLTCVASGFTFSDYAMSWVRQAPGKGLQWVAGIDSVGSGTSYADSVKGRFTISRDNAKNTLYLQMNSLKTEDTATYYCASGFPGSFEHWGQGTLVTVSSASTTAPSVFPLAPSCGTTSGATVALACLVLGYFPEPVTVSWNSGALTSGVHTFPAVLQASGLYSLSSMVTVPSSRWLSDTFTCNVAHPPSNTKVDKTVRKTDHPPGPKPCDCPKCPPPEMLGGPSIFIFPPKPKDTLSISRTPEVTCLVVDLGPDDSDVQITWFVDNTQVYTAKTSPREEQFNSTYRVVSVLPILHQDWLKGKEFKCKVNSKSLPSPIERTISKAKGQPHEPQVYVLPPAQEELSRNKVSVTCLIKSFHPPDIAVEWEITGQPEPENNYRTTPPQLDSDGTYFVYSKLSVDRSHWQRGNTYTCSVSHEALHHHHTQKSLTQSPGK
VL: QSVLTQPSSVSGTLGQRITISCTGSSSNIGSGYVGWYQQVPGMGPKTVIYYNSDRPSGVPDRFSGSKSGSSGTLTITGLQAEDEADYYCSVYDRTFNAVFGGGT
notes: also called mAb4 ID No. 00
Turning to B5, the affinity in assay [4], expressed as Kd, was 4.88 nM.

B6: mAb4 (felinized anti-IL31 antibody ZTS-5864) S428M and S434F, feline IgG1a (antibody)
heavy: DVQLVESGGDLVKPGGSLRLTCVASGFTFSDYAMSWVRQAPGKGLQWVAGIDSVGSGTSYADSVKGRFTISRDNAKNTLYLQMNSLKTEDTATYYCASGFPGSFEHWGQGTLVTVSSASTTAPSVFPLAPSCGTTSGATVALACLVLGYFPEPVTVSWNSGALTSGVHTFPAVLQASGLYSLSSMVTVPSSRWLSDTFTCNVAHPPSNTKVDKTVRKTDHPPGPKPCDCPKCPPPEMLGGPSIFIFPPKPKDTLSISRTPEVTCLVVDLGPDDSDVQITWFVDNTQVYTAKTSPREEQFNSTYRVVSVLPILHQDWLKGKEFKCKVNSKSLPSPIERTISKAKGQPHEPQVYVLPPAQEELSRNKVSVTCLIKSFHPPDIAVEWEITGQPEPENNYRTTPPQLDSDGTYFVYSKLSVDRSHWQRGNTYTCSVMHEALHFHHTQKSLTQSPGK
VL: QSVLTQPSSVSGTLGQRITISCTGSSSNIGSGYVGWYQQVPGMGPKTVIYYNSDRPSGVPDRFSGSKSGSSGTLTITGLQAEDEADYYCSVYDRTFNAVFGGGT
notes: also called mAb4 ID No. 33
B6: the dissociation constant (Kd) in assay [5] turned out to be 4.29 nM; in assay [6], 4010 nM.

B7: mAb4 (felinized anti-IL31 antibody ZTS-5864) S428L, feline IgG1a (antibody)
heavy: DVQLVESGGDLVKPGGSLRLTCVASGFTFSDYAMSWVRQAPGKGLQWVAGIDSVGSGTSYADSVKGRFTISRDNAKNTLYLQMNSLKTEDTATYYCASGFPGSFEHWGQGTLVTVSSASTTAPSVFPLAPSCGTTSGATVALACLVLGYFPEPVTVSWNSGALTSGVHTFPAVLQASGLYSLSSMVTVPSSRWLSDTFTCNVAHPPSNTKVDKTVRKTDHPPGPKPCDCPKCPPPEMLGGPSIFIFPPKPKDTLSISRTPEVTCLVVDLGPDDSDVQITWFVDNTQVYTAKTSPREEQFNSTYRVVSVLPILHQDWLKGKEFKCKVNSKSLPSPIERTISKAKGQPHEPQVYVLPPAQEELSRNKVSVTCLIKSFHPPDIAVEWEITGQPEPENNYRTTPPQLDSDGTYFVYSKLSVDRSHWQRGNTYTCSVLHEALHSHHTQKSLTQSPGK
VL: QSVLTQPSSVSGTLGQRITISCTGSSSNIGSGYVGWYQQVPGMGPKTVIYYNSDRPSGVPDRFSGSKSGSSGTLTITGLQAEDEADYYCSVYDRTFNAVFGGGT
notes: also called mAb4 ID No. 11
In turn, B7 gave an equilibrium dissociation constant (Kd) in assay [4] of 15.5 nM.

B8: mAb4 (felinized anti-IL31 antibody ZTS-5864) S428Y and S434W, feline IgG1a (antibody)
heavy: DVQLVESGGDLVKPGGSLRLTCVASGFTFSDYAMSWVRQAPGKGLQWVAGIDSVGSGTSYADSVKGRFTISRDNAKNTLYLQMNSLKTEDTATYYCASGFPGSFEHWGQGTLVTVSSASTTAPSVFPLAPSCGTTSGATVALACLVLGYFPEPVTVSWNSGALTSGVHTFPAVLQASGLYSLSSMVTVPSSRWLSDTFTCNVAHPPSNTKVDKTVRKTDHPPGPKPCDCPKCPPPEMLGGPSIFIFPPKPKDTLSISRTPEVTCLVVDLGPDDSDVQITWFVDNTQVYTAKTSPREEQFNSTYRVVSVLPILHQDWLKGKEFKCKVNSKSLPSPIERTISKAKGQPHEPQVYVLPPAQEELSRNKVSVTCLIKSFHPPDIAVEWEITGQPEPENNYRTTPPQLDSDGTYFVYSKLSVDRSHWQRGNTYTCSVYHEALHWHHTQKSLTQSPGK
VL: QSVLTQPSSVSGTLGQRITISCTGSSSNIGSGYVGWYQQVPGMGPKTVIYYNSDRPSGVPDRFSGSKSGSSGTLTITGLQAEDEADYYCSVYDRTFNAVFGGGT
notes: also called mAb4 ID No. 31
B8: the equilibrium dissociation constant (Kd) in assay [5] was 7.8 nM; in assay [6], 431 nM.
